Laboratory results: article PMC7971329 (Oncoimmunology, 2021)

Target: human interleukin-2 (human, UniProt P60568)
Test: SEC

human interleukin-2, sequence (P60568 21-153): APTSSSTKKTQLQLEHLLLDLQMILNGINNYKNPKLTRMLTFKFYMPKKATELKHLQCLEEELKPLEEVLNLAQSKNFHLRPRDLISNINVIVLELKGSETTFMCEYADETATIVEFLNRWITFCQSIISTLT

B1: TCB2-Fab (Fab, V domains shown)
VH: EVQLQQSGAELARPGASVKLSCKASGYTFTTYWIQWVKQRPGQGLEWIGAIYPGDGDTRYIQNFKGKATLTADKSSSTAYMQLSSLASEDSAVYYCARSLATRGFYAMDYWGQGTSVTVSS
VL: DIVMTQSPASLSMAIGEKVTIRCITSTDIDDDMNWYQQKPGEPPKLLISEGNTLRPGVPSRFSSSGYGTDFVFTIENMLSEDVADYYCLQSDNLPYTFGGGTKLEIK
B1: binds.
